For 1 substance, percent reduced binding compared to WT MRNIP results are on record in publication PMC5014761.

In this assay the target is Δ25 FLAG-MRNIP (human) (UniProt Q6NTE8). As to the kind of experiment: co-IP; 1 mg whole-cell extract (20 mM Tris-HCl pH 7.5, 150 mM NaCl, 1% Triton X-100, 1 mM DTT, 1 mM EDTA, Benzonase) with M2 anti-FLAG beads 16 hr at 4°C; eluted with FLAG peptide or by heating; immunoblot; HEK293 stable, tetracycline-inducible or transiently transfected cells; in Figure 2D cells exposed to the indicated doses of IR. (In general: A western blot detects proteins with antibodies after separation by electrophoresis.)
UniProt Q6NTE8, sequence (Q6NTE8 whole entry, stated change not applied): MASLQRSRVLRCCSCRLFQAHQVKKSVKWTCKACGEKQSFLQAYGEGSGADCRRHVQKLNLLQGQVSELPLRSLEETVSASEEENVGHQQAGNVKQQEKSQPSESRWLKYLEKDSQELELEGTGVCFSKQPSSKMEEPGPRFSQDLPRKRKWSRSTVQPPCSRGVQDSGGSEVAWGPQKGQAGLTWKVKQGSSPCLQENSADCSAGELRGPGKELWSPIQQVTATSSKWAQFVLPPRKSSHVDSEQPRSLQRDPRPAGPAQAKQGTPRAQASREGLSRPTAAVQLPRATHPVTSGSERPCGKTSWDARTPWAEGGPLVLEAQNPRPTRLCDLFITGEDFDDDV

Take the MRN complex: the percent reduced binding compared to WT MRNIP lay within 50 to 70%.
